Source: publication PMC4273445 (eLife, 2014)

Columns and labels:
Assay in all cases: SPR
[1] = target: fHbp V2.21 Glu (at V1 Asp262) to Ala (N. meningitidis)
[2] = target: fHbp V2.21 Glu (at V1 His313) to Ala (N. meningitidis)
[3] = target: fHbp V2.21 His (at V1 His203) to Ala (N. meningitidis)
[4] = target: fHbp V2.21 Leu (at V1 Ile199) to Ala (N. meningitidis)
[5] = target: fHbp V2.21 Phe (at V1 Phe194) to Ala (N. meningitidis)
[6] = target: fHbp V1.1 Phe292 to Ala (N. meningitidis)

CFH67, CCP domains 6 and 7 of complement factor H, sequence (P08603 321-443): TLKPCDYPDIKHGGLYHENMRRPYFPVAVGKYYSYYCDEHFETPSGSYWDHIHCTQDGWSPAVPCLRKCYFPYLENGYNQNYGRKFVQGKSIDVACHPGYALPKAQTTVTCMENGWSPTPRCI

Substance | Kd [1] [nM] | Kd [2] [nM] | Kd [3] [nM] | Kd [4] [nM] | Kd [5] [nM] | Kd [6] [nM]
CFHR3_(12), the first two (N-terminal) CCP domains of complement factor H-related 3 (from UniProt Q02985 19-330) (domain or fragment) | 5.43 | 0.723 | 3.81 | 11.2 | 1.08 | –
CFH67, CCP domains 6 and 7 of complement factor H (from UniProt P08603 321-443) (domain or fragment) | – | – | – | – | – | 6.8
